From article PMC10755771

Biological target: STAM1-His (signal-transducing adaptor molecule 1, wild type) (UniProt Q92783)

in vitro ubiquitination of STAM1 by AIP4 with βarr1 at 0-320 nM, 90 min at 37 °C; EC50 for βarr1 from the STAM1 immunoblots: 48.7 nM
in vitro ubiquitination of STAM1 by AIP4 with βarr1 at 0-320 nM, 90 min at 37 °C; EC50 for βarr1 from the ubiquitin immunoblots: 49.8 nM
Substance: βarrestin1 (untagged, wild type) (from UniProt P49407 1-418) (natural protein)
